Data taken from PMC12135937.

Tests used:
Test in all cases: SPR; Biacore T100, CM4 chip; DIPs immobilised by amine coupling (700-900 RU), monomeric Dpr analytes in 3-fold dilution series (0.012 to 9, 27 or 81 µM); 25 °C; 10 mM Tris-HCl pH 7.2, 150 mM NaCl, 1 mM EDTA, 1 mg/mL BSA, 0.01% Tween-20; equilibrium responses fit to a 1:1 model
[1] = target: DIP-α (Drosophila melanogaster) (UniProt Q9W4R3)
[2] = target: DIP-β isoform C (Drosophila melanogaster)
[3] = target: DIP-λ (Drosophila melanogaster)
Chain of DIP-λ (Drosophila melanogaster) (main, as listed by the source): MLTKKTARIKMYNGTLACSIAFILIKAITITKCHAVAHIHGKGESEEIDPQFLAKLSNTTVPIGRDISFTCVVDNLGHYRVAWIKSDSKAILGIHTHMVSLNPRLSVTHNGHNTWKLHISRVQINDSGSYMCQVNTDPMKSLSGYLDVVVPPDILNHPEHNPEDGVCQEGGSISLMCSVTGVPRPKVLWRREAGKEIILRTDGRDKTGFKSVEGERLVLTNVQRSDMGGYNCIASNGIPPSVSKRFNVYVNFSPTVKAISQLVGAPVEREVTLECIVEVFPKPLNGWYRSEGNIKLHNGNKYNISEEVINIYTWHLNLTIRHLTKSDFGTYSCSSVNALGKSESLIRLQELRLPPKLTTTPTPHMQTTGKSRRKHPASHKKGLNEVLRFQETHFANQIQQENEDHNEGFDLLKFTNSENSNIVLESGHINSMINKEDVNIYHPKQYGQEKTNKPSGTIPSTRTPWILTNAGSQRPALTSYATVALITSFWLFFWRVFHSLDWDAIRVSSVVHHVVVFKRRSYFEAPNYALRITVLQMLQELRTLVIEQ

Chain of DIP-α (Drosophila melanogaster) (Q9W4R3 entry or part of it): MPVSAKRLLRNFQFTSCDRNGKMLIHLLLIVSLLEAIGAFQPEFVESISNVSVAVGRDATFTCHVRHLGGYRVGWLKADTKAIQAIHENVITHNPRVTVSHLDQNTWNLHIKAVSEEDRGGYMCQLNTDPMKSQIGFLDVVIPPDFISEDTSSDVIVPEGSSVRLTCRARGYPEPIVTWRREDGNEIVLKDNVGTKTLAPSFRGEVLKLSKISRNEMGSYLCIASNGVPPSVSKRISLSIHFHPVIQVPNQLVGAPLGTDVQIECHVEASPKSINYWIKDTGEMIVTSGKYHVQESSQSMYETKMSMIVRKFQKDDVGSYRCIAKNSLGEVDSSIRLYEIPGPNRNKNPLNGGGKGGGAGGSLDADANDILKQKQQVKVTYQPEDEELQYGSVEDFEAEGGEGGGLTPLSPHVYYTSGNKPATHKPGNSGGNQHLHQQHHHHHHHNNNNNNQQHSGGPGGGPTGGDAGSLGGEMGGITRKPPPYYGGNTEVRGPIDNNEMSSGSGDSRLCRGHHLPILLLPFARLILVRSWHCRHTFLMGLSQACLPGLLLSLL
Chain of DIP-β isoform C (Drosophila melanogaster) (main, as listed by the source): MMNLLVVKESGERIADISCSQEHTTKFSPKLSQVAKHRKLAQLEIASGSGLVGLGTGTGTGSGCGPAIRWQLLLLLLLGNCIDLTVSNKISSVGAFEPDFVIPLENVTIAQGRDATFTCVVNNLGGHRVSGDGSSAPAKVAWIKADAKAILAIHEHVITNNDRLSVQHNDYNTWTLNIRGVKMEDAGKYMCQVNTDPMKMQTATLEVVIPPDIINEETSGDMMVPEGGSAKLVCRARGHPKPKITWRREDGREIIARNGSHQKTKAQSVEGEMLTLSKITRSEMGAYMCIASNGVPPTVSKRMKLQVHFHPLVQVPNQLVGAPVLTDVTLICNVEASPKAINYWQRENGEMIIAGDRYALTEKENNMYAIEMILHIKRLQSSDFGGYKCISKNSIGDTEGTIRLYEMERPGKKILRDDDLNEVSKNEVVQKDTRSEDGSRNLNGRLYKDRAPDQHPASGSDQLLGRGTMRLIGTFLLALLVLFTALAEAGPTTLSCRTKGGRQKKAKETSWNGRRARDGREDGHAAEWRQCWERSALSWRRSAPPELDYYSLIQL

- Kd [1]: 1340 nM
- Kd [2]: 84 µM
- Kd [3]: 5.84 µM
B1: Dpr10 isoform A (domain or fragment)
chain: WNEPYFDLTMPRNITSLVGKSAYLGCRVKHLGNKTVAWIRHRDLHILTVGTYTYTTDQRFQTSYHRDIDEWTLQIKWAQQRDAGVYECQISTQPVRSYSVNLNIVDLIDAETSDIMQQYYNDDAFYIAENRVYQSSNDEFAGMFGPIQTVAVPTATILGGPDLYVDKGSTINLTCIIKFSPEPPTHIFWYHQDKVLSEETSGGRLKFKTIKSEETKSILLIYDADLLHSGKYSCYPSNTEIASIRVHVLQGE
